Results taken from patent US20130197070, “AXL RECEPTOR TYROSINE KINASE APTAMER INHIBITOR FOR USE IN THERAPY” (CNR - CONSIGLIO NAZIONALE DELLE RICERCHE, published 2013).

Columns and labels:
[1] = target: T1, Mer extracellular domain (EC-Mer) (UniProt Q12866 Q12866:21-505); assay: filter; no Kd calculable up to 1000 nM protein; no binding or affinity at least 10^3 lower; PBS, 0.01% BSA, 37 C; details: tags: soluble extracellular domain, R&D Systems; label: 5'-32P
T1 sequence: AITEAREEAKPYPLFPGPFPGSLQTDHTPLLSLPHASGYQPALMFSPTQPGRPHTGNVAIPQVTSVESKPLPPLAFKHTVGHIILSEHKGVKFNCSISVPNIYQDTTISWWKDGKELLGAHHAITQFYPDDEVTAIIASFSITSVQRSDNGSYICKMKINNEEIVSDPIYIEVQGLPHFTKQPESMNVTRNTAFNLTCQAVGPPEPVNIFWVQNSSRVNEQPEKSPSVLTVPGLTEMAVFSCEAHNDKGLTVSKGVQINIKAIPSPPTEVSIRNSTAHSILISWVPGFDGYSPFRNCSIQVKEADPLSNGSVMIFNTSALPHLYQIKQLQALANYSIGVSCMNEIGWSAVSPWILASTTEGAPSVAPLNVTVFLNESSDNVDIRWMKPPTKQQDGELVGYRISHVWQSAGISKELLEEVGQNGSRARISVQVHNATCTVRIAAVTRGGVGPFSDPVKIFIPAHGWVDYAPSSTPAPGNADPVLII
Protocol: (§1) 1 nM of radiolabelled aptamers (GL21 52-85 or Unrelated) were incubated with 1, 3.2, 10, 32, 100, 320 and 1000 nM of Axl, Dtk, Mer soluble extracellular domain (all from R&D Systems, Minneapolis, Minn.) for 15 min at 37° in phosphate-buffered saline (PBS) supplemented with 0.01% bovine serum albumin.
(§2) After incubation, the aptamer-protein mix was passed through nitrocellulose membrane filter (Millipore Co., Bedford, Mass.) and filters were counted.

[2] = target: Axl extracellular domain (EC-Axl) (UniProt P30530 P30530:26-451); assay: filter; PBS, 0.01% BSA, 37 C, 15 min; unrelated aptamer background subtracted; details: tags: soluble extracellular domain, R&D Systems; label: 5'-32P
Sequence of Axl extracellular domain (EC-Axl) (P30530 26-451, one chain of several): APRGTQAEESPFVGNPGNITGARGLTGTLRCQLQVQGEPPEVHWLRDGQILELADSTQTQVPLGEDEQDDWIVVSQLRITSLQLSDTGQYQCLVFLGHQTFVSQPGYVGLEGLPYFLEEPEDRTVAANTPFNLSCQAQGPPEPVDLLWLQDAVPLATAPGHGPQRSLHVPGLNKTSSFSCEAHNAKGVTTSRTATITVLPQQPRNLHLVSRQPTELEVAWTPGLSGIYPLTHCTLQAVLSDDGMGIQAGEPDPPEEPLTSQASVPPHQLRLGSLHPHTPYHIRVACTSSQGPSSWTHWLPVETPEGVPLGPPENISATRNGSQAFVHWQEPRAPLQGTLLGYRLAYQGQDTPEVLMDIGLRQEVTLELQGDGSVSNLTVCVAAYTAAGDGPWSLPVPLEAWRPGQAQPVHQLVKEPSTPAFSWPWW
Protocol: as §1, §2

[3] = target: T2, Dtk (Tyro3) extracellular domain (EC-Dtk) (UniProt Q06418 Q06418:41-429); assay: as above; details: tags: soluble extracellular domain, R&D Systems; label: 5'-32P
T2 sequence: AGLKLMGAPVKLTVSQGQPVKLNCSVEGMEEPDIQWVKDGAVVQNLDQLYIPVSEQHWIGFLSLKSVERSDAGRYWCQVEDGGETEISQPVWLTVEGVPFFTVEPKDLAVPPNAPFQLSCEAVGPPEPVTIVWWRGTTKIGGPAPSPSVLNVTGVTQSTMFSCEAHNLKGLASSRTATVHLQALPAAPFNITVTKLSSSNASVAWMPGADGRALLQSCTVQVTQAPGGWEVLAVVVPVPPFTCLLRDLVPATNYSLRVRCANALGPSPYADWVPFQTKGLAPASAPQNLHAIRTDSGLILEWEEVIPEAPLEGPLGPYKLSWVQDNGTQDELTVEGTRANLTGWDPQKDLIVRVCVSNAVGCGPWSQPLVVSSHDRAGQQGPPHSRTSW
Protocol: as §1, §2

[4] = target: Axl receptor tyrosine kinase (cell surface) (Homo sapiens, UniProt P30530 P30530:26-894); assay: binding to Axl-positive U87MG cells; reduced by Axl shRNA; binds Axl-transfected SKBr3 but not parental SKBr3; details: label: 5'-32P
Sequence of Axl receptor tyrosine kinase (cell surface) (P30530 26-894, one chain of several): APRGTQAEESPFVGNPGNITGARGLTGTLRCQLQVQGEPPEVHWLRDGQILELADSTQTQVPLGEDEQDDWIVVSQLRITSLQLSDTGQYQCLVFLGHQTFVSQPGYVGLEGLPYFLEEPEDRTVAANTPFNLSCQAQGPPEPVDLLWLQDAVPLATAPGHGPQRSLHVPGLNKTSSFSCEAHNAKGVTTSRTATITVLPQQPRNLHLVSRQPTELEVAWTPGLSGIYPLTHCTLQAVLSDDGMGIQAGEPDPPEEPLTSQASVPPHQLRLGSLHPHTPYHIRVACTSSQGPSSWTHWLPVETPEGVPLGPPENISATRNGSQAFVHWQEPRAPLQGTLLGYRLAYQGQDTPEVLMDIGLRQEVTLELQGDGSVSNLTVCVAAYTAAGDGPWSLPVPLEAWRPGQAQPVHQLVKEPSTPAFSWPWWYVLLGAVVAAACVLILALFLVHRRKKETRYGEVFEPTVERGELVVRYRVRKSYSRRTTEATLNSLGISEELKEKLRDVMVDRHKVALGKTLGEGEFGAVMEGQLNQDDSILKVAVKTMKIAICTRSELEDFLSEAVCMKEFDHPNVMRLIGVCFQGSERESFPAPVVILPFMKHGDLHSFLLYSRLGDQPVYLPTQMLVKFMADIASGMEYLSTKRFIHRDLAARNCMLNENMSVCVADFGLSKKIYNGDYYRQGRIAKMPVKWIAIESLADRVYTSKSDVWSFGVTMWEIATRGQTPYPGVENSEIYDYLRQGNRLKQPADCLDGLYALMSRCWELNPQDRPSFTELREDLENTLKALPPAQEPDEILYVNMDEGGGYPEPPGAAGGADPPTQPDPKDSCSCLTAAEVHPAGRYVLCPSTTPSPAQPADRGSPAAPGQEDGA

B1: GL21 52-85 (GL21.T) (ssRNA)
RNA: AUGAUCAAUCGCCUCAAUUCGACAGGAGGCUCAC
modifications: 2'-F on all pyrimidines
binding result [1]: no binding
Kd [2]: 13 nM
Kd [3]: 47 nM
Kd [4]: 90 nM
